# Laboratory results reported in patent publication US6670452B2, “Non-naturally occurring lipoprotein particle” (University of Strathclyde, priority 1996, dated 2003).
# “Also recorded” adds a separate entry of the source. No end group written: not given here. lipid anchor = not defined here
# Legend:
# [1] = Particle size by photon correlation spectroscopy; format: physicochemical; conditions: for Peptide concentration producing increases in diameter: FIG. 8; for Effect of increasing peptide concentration on particle diameter: FIG. 8, Number Mean Diameter
# Description: Particle size analysis was carried out using photon correlation spectroscopy (Zetasizer® Model 4, Malvern Instruments, Malvern, (UK). Before analysis samples were diluted with Tris-HCl buffer (0.01M) and filtered (0.2 μm). Sizing measurements were carried out at a fixed angle of 90° to the incident beam. The correlator was operated in parallel mode to allow for more accurate size distribution measurements. The cumulants method of analysis was used to calculate the mean sample size weighted according to the intensity of scattered light (z-average diameter). Since this diameter is weighted strongly on favour of large particles, Rayleigh theory was used to convert intensity distributions into number distributions [^12]. The viscosity and refractive index values of pure water were used in the size calculations. All results quoted are the mean and standard deviation of at least 10 measurements.
# [2] = Zeta potential measurement; format: physicochemical; conditions: for Zeta potential increase at low peptide concentrations: below 0.2 moles/mole CO, diameter unchanged; for Changes of mean number diameter and zeta potential in altered surface lipid formulations (FIG. 10): microemulsion formulations with PC, SM, UC, TO, CO; for Zeta potential reached with increasing peptide concentration: plateau / constant value, FIG. 8, pH 8.0 Tris, 25° C.
# Description: Samples were diluted 1 in 5 with 0.01M Tris buffer (pH 8.0) and zeta potential measured at 25° C. using the Zetasizer® 4 (Malvern Instruments). The applied voltage was 150V in each case and duty cycling was used to limit the cell current to 20 mA. All results quoted are the mean and standard deviation of at least 10 measurements.
# [3] = tested on: U937 cells; assay: U937 cell growth (proliferation) assay; format: cell-based; conditions: DFCS 5% v/v, peptide 0.03 mol/mol cholesterol oleate, 72 hours, range of cholesterol concentrations
# Description: U937 stock cultures were grown at 37° C. in RPMI 1640 media supplemented glutamine (10 mM), gentamicin (50 μg/ml), fungizone (0.5 μg/ml) and 10% (v/v) foetal calf serum (FCS). Cells were maintained in a humidified 5% CO2, atmosphere between 1-8×10^5 cells/ml and sub-cultured twice weekly.
# All growth assays were conducted over 72 hours in 24 well plates unless otherwise indicated. One day before each growth experiment, cells were centrifuged at 1500 rpm for 5 minutes and resuspended in RPM: medium containing 5% (v/v) delipidated foetal calf serum (DFCS) to initiate cholesterol starvation and up regulate LDL receptors. Cells were collected by centrifugation and seeded at 1×10^5/well. Appropriate amounts of cholesterol (either LDL, microemulsion or nLDL) were then added after filtration (0.2 μm) and the well volume made up to 1 ml with RPMI containing 5% (v/v) DFCS. After 72 hours an aliquot of each well was diluted with PBS and the number of cells present determined in triplicate by Coulter Counter. Different concentrations were repeated four or eight times depending on the experiment. Three wells per experiment were checked at random before commencement of incubation to ensure a uniform cell density was achieved. […] In all cases, the mean starting cell densities of control resells were between 0.95 and 1.05×10^5 cells/ml.
# [4] = tested on: B16 cells; assay: 14C-nLDL cell binding assay at 4° C.; conditions: peptide 0.03 mol/mol cholesterol
# Description: The required quantity of 14C-cholesteryl oleate (0.5 μCi-/mmol CO, supplied dissolved in toluene) was mixed if required with ten times its volume of DMSO prior to addition to stirred nLDL heated at 55° C. in a water bath. After incubation for 5 hours the mixture was passed down a Sephadex G-25M gel exclusion chromatography column (bed volume 10 ml) eluted with PBS. Fractions (1 ml) were collected their absorbance (300 nm) and 14C-cholesteryl oleate activity measured. Labelled preparations were filter sterilised (0.2 μm) and stored at 4° C. under N2 before use.
# B16 cells were maintained in RPM: 1640 medium supplemented with 10% v/v FCS incubated at 37° C. in a 5% CO2 in air atmosphere. Confluent cultures were trypsinised, harvested and re-seeded at a dilution of 1 in 20 in fresh medium.
# B16 cells were harvested in the log growth phase, washed by centrifugation and re-seeded into 24 well plates 1×10^5 cells/ml in media containing 10 v/v DFCS. After overnight incubation the cells were cooled to 4° C. for 1 hour, the media aspirated and replaced with ice cold media containing 10% v/v DFCS, supplemented with 14C-nLDL at a cholesterol concentration of 0.08 mmol/l. Four replicate wells were used for each concentration. Cells were then incubated at 4° C. for 4 hours with occasional rocking, the media aspirated and cells washed three times with ice cold PBS/BSA buffer (2 mg/ml BSA in PBS) followed by two ten minute incubations with ice cold PBS/BSA. Three final washes with ice cold PBS were then conducted. The 14C-cholesteryl oleate was extracted with hexane/isocropanol for 30 minutes at room temperature, aspirated and then mixed with 3 ml of scintillation fluid prior to counting. Cellular protein left in the well after extraction was assayed using Peterson's modification of the Lowry method^14. Sodium deoxycholate (1.5 mg/ml) was added to solubilise the protein, which was then precipitated by the addition of trichloroacetic acid (72% w/v), pelleted by centrifugation (5,000 rpm 10 minutes), the supernatant discarded and the pellet solubilised in Lowry reagent at room temperature for 20 minutes. Folin Ciocalteu's reagent was added, the solutions mixed and the colour allowed to develop for 30 minutes prior to absorbance measurements at 690 nm using a plate reader. A calibration curve was clotted from BSA standards ranging from 20 to 200 μg/ml.
Substance,Peptide concentration producing increases in diameter [1] [moles /mole CO],Effect of increasing peptide concentration on particle diameter [1],Difference in zeta potential between the lipid formulations ([2]; FIG. 10),Zeta potential increase at low peptide concentrations [2],Changes of mean number diameter and zeta potential in altered surface lipid formulations (FIG. 10) [2],Zeta potential reached with increasing peptide concentration [2],Growth of U937 cells induced by different nLDL preparations (FIG. 4) [3],Total binding curve to B16 cells (FIG. 11) [4],"Effect of peptide on zeta potential ([2]; increasing peptide concentrations, FIG. 8)"
Peptide A: eleven amino acids Apo B binding site peptide with both C and N terminal lipid anchors (FIG. 7) ({lipid anchor}-LRLTRKRGLKL; not fully specified (C-terminus); reading uncertain; also: C-terminal lipid anchor),0.5,Below 0.5 moles/mole Co Peptide A has no effect on size,significant difference in zeta potential between the lipid formulations,roughly equal,reversal of zeta potential with little change in diameter,around +17 mV,least effective,,
Peptide B: eleven amino acid Apo B binding site peptide without the C-terminal cholesterol anchor (FIG. 7) ({lipid anchor}-GTTRLTRKRGLKL; not fully specified; reading uncertain),,size also remains constant; also recorded: no effect at any concentration,,roughly equal,reversal of zeta potential with little change in diameter,~+15 mV,greatest increase in proliferation,saturable increase in total binding,
"Peptide C: twenty two amino acid peptide containing the Apo B binding region, with both lipid anchors (FIG. 7) ({lipid anchor}-YKLQGTTRLTRKRGLKLATALS; not fully specified (C-terminus); reading uncertain; also: C-terminal lipid anchor)",0.2,diameter almost doubles,,double the effect,large alterations in both parameters,,greatest increase in proliferation,saturable increase in total binding,reversal of zeta potential
"Peptide D: twenty two amino acid peptide with the cholesterol anchor removed (FIG. 7) (YKLEGTTRLTRKRGLKLATALS; also: lipid anchor, cholesterol anchor removed)",,,,,,,greatest increase in proliferation,saturable increase in total binding,
"Peptide E: random, non Apo B binding region sequence based on the amino acids of the previous peptides (FIG. 7) (TGKRYRLKTLRTLKKTSLLEAA; ()..() Synthesised peptide analogue of the Apo B 100 binding site)",,,,,,,least effective,saturable increase in total binding,
